PMC10330843 (Cell, 2023)

Molecular target: recombinant full-length mouse cGAS (mouse, UniProt Q8C6L5 1-507)
Test: co-IP

Sequence of recombinant full-length mouse cGAS (Q8C6L5 whole entry): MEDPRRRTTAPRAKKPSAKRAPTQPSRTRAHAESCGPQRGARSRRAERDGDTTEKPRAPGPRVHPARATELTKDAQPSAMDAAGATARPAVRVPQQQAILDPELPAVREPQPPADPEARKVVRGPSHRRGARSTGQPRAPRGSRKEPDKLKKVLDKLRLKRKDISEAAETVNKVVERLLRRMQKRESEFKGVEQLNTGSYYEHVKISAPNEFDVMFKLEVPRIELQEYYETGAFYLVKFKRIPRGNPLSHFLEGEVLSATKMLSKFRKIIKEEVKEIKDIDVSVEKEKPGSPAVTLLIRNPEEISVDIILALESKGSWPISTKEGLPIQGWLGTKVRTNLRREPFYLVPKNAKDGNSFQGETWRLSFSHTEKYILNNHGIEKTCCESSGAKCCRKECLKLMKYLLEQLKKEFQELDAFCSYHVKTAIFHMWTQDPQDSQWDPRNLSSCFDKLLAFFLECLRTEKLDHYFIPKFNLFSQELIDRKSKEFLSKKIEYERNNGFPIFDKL

- binding result: binds
B1: recombinant full-length mouse ZBP1 (natural protein, UniProt Q9QY24 1-411, looked up)
chain: MAEAPVDLSTGDNLEQKILQVLSDDGGPVKIGQLVKKCQVPKKTLNQVLYRLKKEDRVSSPEPATWSIGGAASGDGAPAIPENSSAQPSLDERILRFLEANGPHRALHIAKALGMTTAKEVNPLLYSMRNKHLLSYDGQTWKIYHSRQEGQDIAHSGVTQESPAIICQHNPVNMICQQGANSHISIANSNAIQIGHGNVIVREKACGEPGPRTSHPLPLAWDASAQDMPPVAHGAQYIYMDKSLLQQVQLGHHNEMSLVGDAGKHPSYSFSDSPPEVSTTTADPGASFNMQTFEPGPHPEGDTVQTVHIKSCFLEDATIGNGNKMTIHLRSKGEVMESGDSEEPKKEDTGTSSEATPPRSCQHTPSDSMLPTSELRAMALGDSSPQTTEPVLREHEVQDIESSQDTGLSKQ
